In patent US20230272086A1 (CHIA TAI TIANQING PHARMACEUTICAL GROUP, published 2023):
Residue numbers refer to the chain shown, from its start.

T1: cynomolgus monkey ST2 antigen (Cyno-ST2-his, Sino biological, 90915-C08H) (cynomolgus monkey, UniProt Q01638 19-328 (human entry))
T1 construct: Bought protein; not shown: his tag
T1 chain: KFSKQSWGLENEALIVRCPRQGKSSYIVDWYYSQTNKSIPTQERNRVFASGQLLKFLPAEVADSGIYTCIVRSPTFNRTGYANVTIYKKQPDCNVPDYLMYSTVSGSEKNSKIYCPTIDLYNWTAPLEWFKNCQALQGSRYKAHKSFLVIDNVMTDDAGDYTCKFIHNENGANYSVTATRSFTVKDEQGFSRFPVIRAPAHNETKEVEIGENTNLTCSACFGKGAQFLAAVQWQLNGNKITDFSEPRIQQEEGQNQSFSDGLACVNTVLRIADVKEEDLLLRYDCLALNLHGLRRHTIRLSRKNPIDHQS

T2: human ST2 (hST2, Interleukin-1 receptor-like 1 isoform A) on cells (human, UniProt Q01638 19-556)
T2 construct: the same id is used for hST2 naturally expressed on KU812 cells and on human CD4+ T cells; also called HEK293T-hST2-NFκB-Luciferase; KU812-NFκB-Luciferase
T2 sequence: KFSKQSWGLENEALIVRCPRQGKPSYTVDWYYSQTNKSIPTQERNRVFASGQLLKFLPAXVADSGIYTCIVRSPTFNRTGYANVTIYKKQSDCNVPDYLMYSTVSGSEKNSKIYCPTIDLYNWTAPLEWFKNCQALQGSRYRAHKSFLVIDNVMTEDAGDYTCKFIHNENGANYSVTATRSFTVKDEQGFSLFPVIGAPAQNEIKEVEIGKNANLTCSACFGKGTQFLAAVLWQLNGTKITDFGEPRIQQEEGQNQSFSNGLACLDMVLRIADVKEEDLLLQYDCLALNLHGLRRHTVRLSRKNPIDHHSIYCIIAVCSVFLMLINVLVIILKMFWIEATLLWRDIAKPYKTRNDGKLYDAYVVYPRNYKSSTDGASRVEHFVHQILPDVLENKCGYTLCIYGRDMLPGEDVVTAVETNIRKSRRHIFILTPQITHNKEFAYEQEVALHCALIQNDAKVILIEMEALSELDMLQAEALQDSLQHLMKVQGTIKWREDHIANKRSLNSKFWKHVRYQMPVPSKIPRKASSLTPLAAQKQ

T3: recombinant protein containing hST2 extracellular domain with mouse antibody heavy chain Fc tag (hST2-ECD-mFc) (human)
T3 construct: Used for SPR and for ELISA of chimeric and humanized antibodies; also called human ST2 antigen
T3 chain: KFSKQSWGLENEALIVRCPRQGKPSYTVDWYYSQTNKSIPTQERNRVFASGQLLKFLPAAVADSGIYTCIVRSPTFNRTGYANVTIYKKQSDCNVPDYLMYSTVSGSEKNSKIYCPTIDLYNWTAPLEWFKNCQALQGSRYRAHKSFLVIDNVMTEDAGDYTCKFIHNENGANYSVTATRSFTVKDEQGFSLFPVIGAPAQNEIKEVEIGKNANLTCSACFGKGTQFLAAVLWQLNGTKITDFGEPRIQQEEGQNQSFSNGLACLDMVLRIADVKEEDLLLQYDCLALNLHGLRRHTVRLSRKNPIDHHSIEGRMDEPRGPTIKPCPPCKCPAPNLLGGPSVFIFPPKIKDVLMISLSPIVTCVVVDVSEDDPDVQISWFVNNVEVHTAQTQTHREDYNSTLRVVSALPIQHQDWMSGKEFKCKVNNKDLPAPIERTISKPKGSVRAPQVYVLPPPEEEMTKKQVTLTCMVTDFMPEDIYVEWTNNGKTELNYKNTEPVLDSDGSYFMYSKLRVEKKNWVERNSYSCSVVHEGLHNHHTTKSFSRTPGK

B1: RG6149 (antibody Ab2 in CN104334582, prepared in-house) (antibody, human IgG2, kappa, V domains shown)
VH: EVQLVQSGAEVKKPGESLKISCKGSGYSFTNYWIGWVRQMPGKGLEWMGIIYPGNSDTRFSPSFQGQVTISADKSITTAYLQWSSLKASDTAMYYCARHGTSSDYYGLDVWGQGTTVTVSS
VL: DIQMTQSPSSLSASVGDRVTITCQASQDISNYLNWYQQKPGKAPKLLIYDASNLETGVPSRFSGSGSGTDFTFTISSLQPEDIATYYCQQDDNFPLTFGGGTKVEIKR
notes: Control anti-ST2 antibody
B2: Chimeric 17E2 (antibody, human IgG2, kappa, V domains shown)
VH: QVQLQQSGAELVRPGASVTLSCKASGYTFTDYEMHWVKQTPVLGLEWIGAIDPETGDTAYNQKFKGKATLTADKSSSTAYMELSSLASEDSAVYYCIRVDSNYDYFDYWGQDTTLTVSS
VL: DIVLTQSPPILSASPGEKVTMTCRASSSVSYMHWYQQKPGSSPKPWIYDTSNLASGVPARFSGSGSGTSYSLTISRVEAEDAATYYCQQWSSNPLTFGAGTKLELKR
notes: also called xi17E2
B3: Chimeric 7D1 (antibody, human IgG2, kappa, V domains shown)
VH: QVQLQQSGAELVRPGASVTLSCKASGYTFTDYEMHWVKQTPVHGLDWIGTIDPETGDTAYNQKFKGRATLTADKSSSTAYMELSSLTSEDSAVYYCTRYSYTNSPYGMDYWGQGTSVTVSS
VL: DVVMTQTPKFLLVSAGDRVTITCKASQSVSNDVAWYQQKPGQSPKLLIYYASNRYTGVPDRFTGSGYGTDFTFTINTVQAEDLAVYFCQQDYSSPYTFGGGTKLEIKR
notes: also called xi7D1
B4: Chimeric 31C8 (antibody, human IgG2, kappa, V domains shown)
VH: QVQLQQSGPELVRPGASVTLSCKASGYIFIDSEMHWVKQTPVHGLEWIGAIDPETGDTVYNQKFKGKATLTADKSSSTASMELSSLTSEDSAVYYCTGSTTDYYFAYWGQGTTLTVSS
VL: DIVMTQAAFSNPVTLGTSASISCRSSKSLLHSNGIIYLYWYLQKPGQSPQLLIYQMSNLASGVPDRFSSSGSGTDFTLRISRVEAEDVGVYYCAQNLELPFTFGSGTKLEIKR
notes: also called xi31C8
B5: Chimeric 3C6 (antibody, human IgG2, kappa, V domains shown)
VH: QVQLQQSGAEVVRPGASVTLSCKASDYTITDYEMHWVKQTPVHGLEWIGAIDPETGDTAYSQNFKGKATLTADESSSTAYMELSSLTSEDSAVYYCSRSATDYYFASWGQGTTLTVSS
VL: B4 VL with F9I, I21M, I36T, Q47H, R79K
notes: also called xi3C6
B6: Chimeric 8F4 (antibody, human IgG2, kappa, V domains shown)
VH: B4 VH with P9A, Y27H, I30T, S32Y, H35Q, I51F, V59A, S80Y, T97S, T113S
VL: B4 VL with I2V, A7T
notes: also called xi8F4
B7: Chimeric 26A1 (antibody, human IgG2, kappa, V domains shown)
VH: B4 VH with P9A, G26D, I30T, M34I, P41L, V59A, S80Y, D90G, T97S, Y103C
VL: B4 VL
notes: also called xi26A1

Molecular target: T1, cynomolgus monkey ST2 antigen …
Assay: SPR (Biacore T200), Cyno-ST2-his captured by anti-his antibody on CM5, antibody as analyte, 1:1 model
Experimental: (§1) The reaction signals were detected in real time using a Biacore instrument (Cytiva, BiacoreT200), and then an association-dissociation curve was obtained. After the completion of dissociation in each cycle, the biochip was regenerated with a regeneration solution for the next capture; the procedure was repeated until the affinity of the different antibodies for ST2 was determined. The acquired data were finally analyzed using the GE BIAevaluation software with a 1:1 (Langmuir) binding model to determine the association rate constants ka (kon) and the dissociation rate constants kd (koff), and the dissociation constants KD were given by KD = kd/ka. The determined affinity of the anti-ST2 antibody for human ST2 antigen (hST2-ECD-mFc), cynomolgus monkey ST2 antigen (Cyno-ST2-his, Sino biological, 90915-C08H) and the determined affinity of the anti-ST2 chimeric antibodies for ST2 were shown in Table 5.

Binder	Kd [nM]
B1	0.049
B2	0.0257
B3	0.124
B4	0.323
B5	152
B6	4.04
B7	69.8

molecular target: T2, human ST2 (hST2, Interleukin-1 …); assay: flow cytometry on HEK293T-hST2-NFκB-Luciferase cells
Experimental: The binding capacity of the anti-ST2 antibodies to hST2-overexpressing cell lines and cyno-ST2-overexpressing cell lines was analyzed using an FACS-based method through binding assays with the hST2 (SEQ ID NO:1)-overexpressing HEK293T cell line (HEK293T-hST2-NFκB-Luciferase) and the cynomolgus monkey ST2 (SEQ ID NO: 10)-overexpressing HEK293T cell line (HEK293T-Cyno-ST2-NFKB-Luciferase). HEK293 cells were transfected with the pLenti6.3- hST2 plasmid and the pLenti6.3-NFκB-luciferasae plasmid using a lentiviral transfection system to construct the cell line HEK293T-hST2-NFκB-Luciferase. HEK293T cells were transfected with the pLenti6.3-cynoST2 plasmid and the pLenti6.3-NFκB-luciferasae plasmid to construct the cell line HEK293T-Cyno-ST2-NFκB-Luciferase.
3 × 10⁵ HEK293T-hST2-NFκB-Luciferase or HEK293T-Cyno-ST2-NFκB-Luciferase cells were added to a 96-well culture plate. Serially diluted anti-ST2 antibodies (serially diluted 4-fold from an initial concentration of 667 nM to 8 concentrations in binding assays with the HEK293T-hST2-NFκB-Luciferase cells; serially diluted 4-fold from an initial concentration of 400 nM to 8 concentrations in binding assays with the HEK293T-Cyno-ST2-NFκB-Luciferase cells) were added to the cell suspensions. After the plate was incubated at room temperature for 60 min, the cells were washed 3 times with PBS. […] The cells were washed 3 times with PBS and resuspended in 100 µ1L of PBS, and then the fluorescence signals were analyzed and detected using a flow cytometer (BD, Accuri C6). The binding capacity of the anti-ST2 antibodies to hST2 and cyno-ST2 on the cell line surfaces was measured in terms of the mean fluorescence intensity (MFI) of staining. The data were analyzed using GraphPad Prism5, and the EC₅₀ values were calculated. The EC₅₀ values for the binding of the anti-ST2 chimeric antibodies to hST2 and Cyno-ST2 at the cellular level are shown in Table 8 and FIGS. 7-8.

Binder	EC50 [nM]
B1	0.589
B2	0.224
B3	0.265
B4	0.298
B5	0.349
B6	0.343

Molecular target: T3, recombinant protein containing hST2 …
Assay: SPR (Biacore T200), hST2-ECD-mFc captured by anti-mouse IgG on CM5, antibody as analyte, 1:1 model
Experimental: as §1

Binder	Kd [nM]
B1	0.0686
B2	0.0541
B3	0.145
B4	0.0177
B5	0.0872
B6	0.0933
B7	0.0299
